Data taken from patent US20050064507.

Legend:
[1] = test system: T1, peptide HERKGSDKRGDNQ (SEQ ID NO:70)
T1 sequence: XXPPGHERKGSDKRGDNQ

[2] = test system: T2, ARHGAP6 peptide DGQKRKKSLRKKLD (SEQ ID NO:92)
T2 sequence: DGQKRKKSLRKKLD

[3] = test system: T3, Urotensin-2 receptor peptide LYARLARAYRRSQRASFKRA (SEQ ID NO:159)
T3 sequence: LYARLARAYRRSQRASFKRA

[4] = test system: T4, peptide ALRRPSLRREADD (SEQ ID NO:26)
T4 sequence: XXPPGALRRPSLRREADD

[5] = test system: T5, ADD2 peptide KKKFRTPSFLKKSKK (SEQ ID NO:95)
T5 sequence: KKKFRTPSFLKKSKK

[6] = test system: T6, peptide HVRRRRGTFKRSKLRARD (SEQ ID NO:1)
T6 sequence: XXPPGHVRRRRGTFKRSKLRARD

[7] = test system: T7, peptide VLAKKGTSKTPVPE (SEQ ID NO:44)
T7 sequence: XXPPGVLAKKGTSKTPVPE

[8] = test system: T8, AKAP12 peptide AGWRKKTSFRKPKED (SEQ ID NO:99)
T8 sequence: AGWRKKTSFRKPKED

[9] = test system: T9, peptide IKVTHKATGKVMVMK (SEQ ID NO:65)
T9 sequence: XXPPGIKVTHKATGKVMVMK

[10] = test system: T10, peptide LALTARESSVRSGGAG (SEQ ID NO:69)
T10 sequence: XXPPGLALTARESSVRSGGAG

[11] = test system: T11, peptide EARLGAASLKFGARD (SEQ ID NO:56)
T11 sequence: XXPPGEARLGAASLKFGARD

[12] = test system: T12, ubiquitin specific protease 8 peptide RARRDSLKKIEIW (SEQ ID NO:136)
T12 sequence: RARRDSLKKIEIW

[13] = test system: T13, PARIS1 peptide EYLERRASRRRAV (SEQ ID NO:138)
T13 sequence: EYLERRASRRRAV

[14] = test system: T14, peptide QRQERIFSKRRGQDF (SEQ ID NO:63)
T14 sequence: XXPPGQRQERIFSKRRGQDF

[15] = test system: T15, peptide QQKIRKYTMRRLLQE (SEQ ID NO:33)
T15 sequence: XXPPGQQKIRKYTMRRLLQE

[16] = test system: T16, peptide RKKRKKKSSKSLAHAGVALA (SEQ ID NO:31)
T16 sequence: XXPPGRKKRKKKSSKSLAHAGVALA

[17] = test system: T17, NIK peptide TEGKMARVAWKGKRRSKARK (SEQ ID NO:164)
T17 sequence: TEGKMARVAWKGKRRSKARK

[18] = test system: T18, PPP1R14A peptide QKRHARVTVKYDRRE (SEQ ID NO:107)
T18 sequence: QKRHARVTVKYDRRE

[19] = test system: T19, plectin peptide PLKEKKRERKTSSKSSVRKR (SEQ ID NO:125)
T19 sequence: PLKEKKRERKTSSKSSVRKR

[20] = test system: T20, MCM2 peptide VQRHRSMRKTFARYLSFRRD (SEQ ID NO:129)
T20 sequence: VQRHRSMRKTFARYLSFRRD

[21] = test system: T21, peptide RGFLRSASLGRRASFHLE (SEQ ID NO:15)
T21 sequence: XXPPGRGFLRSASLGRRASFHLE

[22] = test system: T22, peptide NYLRRRLSDSNFMAN (SEQ ID NO:38)
T22 sequence: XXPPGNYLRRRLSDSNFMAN

[23] = test system: T23, kinesin 3C peptide LEKRGMLGKRPRRKSSRRKK (SEQ ID NO:133)
T23 sequence: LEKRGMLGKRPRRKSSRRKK

[24] = test system: T24, peptide ENLRRVATDRRHLGH (SEQ ID NO:50)
T24 sequence: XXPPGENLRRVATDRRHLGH

[25] = test system: T25, peptide GAPPRRSSIRNAH (SEQ ID NO:20)
T25 sequence: XXPPGGAPPRRSSIRNAH

[26] = test system: T26, peptide KNVVKLLSSRRTQDR (SEQ ID NO:57)
T26 sequence: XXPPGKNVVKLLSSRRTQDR

[27] = test system: T27, splicing factor, arginine/serine-rich 4 peptide RSRSRSRSKSKDKRKSRKRS (SEQ ID NO:134)
T27 sequence: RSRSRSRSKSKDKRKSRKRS

[28] = test system: T28, M1 muscarinic receptor peptide RWDKRRWRKIPKRPGSVHRT (SEQ ID NO:155)
T28 sequence: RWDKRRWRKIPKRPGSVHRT

[29] = test system: T29, peptide AGWRKKTSFRKPKED (SEQ ID NO:17)
T29 sequence: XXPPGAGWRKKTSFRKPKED

[30] = test system: T30, cyclophilin G peptide TEEKSKKRKKKHRKNSRKHK (SEQ ID NO:165)
T30 sequence: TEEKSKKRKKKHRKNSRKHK

[31] = test system: T31, NIK peptide WKGKRRSKARKKRK (SEQ ID NO:131)
T31 sequence: WKGKRRSKARKKRK

[32] = test system: T32, FLJ20574 peptide GENVLKKSMKSRVKG (SEQ ID NO:113)
T32 sequence: GENVLKKSMKSRVKG

[33] = test system: T33, peptide AYIERMNSIHRDLRA (SEQ ID NO:37)
T33 sequence: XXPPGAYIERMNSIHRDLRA

[34] = test system: T34, peptide GLLDRKGSWKKLDDM (SEQ ID NO:35)
T34 sequence: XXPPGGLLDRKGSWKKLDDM

[35] = test system: T35, MGC2941 peptide RPTPGDGEKRSRIKKSKKRK (SEQ ID NO:139)
T35 sequence: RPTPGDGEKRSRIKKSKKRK

[36] = test system: T36, peptide GENVLKKSMKSRVKG (SEQ ID NO:36)
T36 sequence: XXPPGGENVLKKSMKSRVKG

[37] = test system: T37, calcium channel, voltage-dependent, L type, alpha peptide RDIRQSPKRGFLRSASLGRR (SEQ ID NO:147)
T37 sequence: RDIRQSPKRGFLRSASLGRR

[38] = test system: T38, peptide RKIPKRPGSVHRTPSRQ (SEQ ID NO:7)
T38 sequence: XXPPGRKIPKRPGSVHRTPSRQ

## PKC-delta
[1]
  in vitro phosphorylation (% of best substrate): 1
[2]
  in vitro phosphorylation (% of best substrate): 17
[3]
  in vitro phosphorylation, 1 uM peptide (% of best substrate): 15
  in vitro phosphorylation, 10 uM peptide (% of best substrate): 12
[4]
  in vitro phosphorylation (% of best substrate): 9
[5]
  in vitro phosphorylation (% of best substrate): 25
[6]
  in vitro phosphorylation (% of best substrate): 100
[7]
  in vitro phosphorylation (% of best substrate): 2
[8]
  in vitro phosphorylation (% of best substrate): 17
[9]
  in vitro phosphorylation (% of best substrate): 1
[10]
  in vitro phosphorylation (% of best substrate): 1
[11]
  in vitro phosphorylation (% of best substrate): 2
[12]
  in vitro phosphorylation, 1 uM peptide (% of best substrate): 41
  in vitro phosphorylation, 10 uM peptide (% of best substrate): 23
[13]
  in vitro phosphorylation, 1 uM peptide (% of best substrate): 49
  in vitro phosphorylation, 10 uM peptide (% of best substrate): 28
[14]
  in vitro phosphorylation (% of best substrate): 1
[15]
  in vitro phosphorylation (% of best substrate): > 5
[16]
  in vitro phosphorylation (% of best substrate): > 5
[17]
  in vitro phosphorylation, 1 uM peptide (% of best substrate): 18
  in vitro phosphorylation, 10 uM peptide (% of best substrate): 26
[18]
  in vitro phosphorylation (% of best substrate): 10
[19]
  in vitro phosphorylation, 1 uM peptide (% of best substrate): 46
  in vitro phosphorylation, 10 uM peptide (% of best substrate): 36
[20]
  in vitro phosphorylation, 1 uM peptide (% of best substrate): 32
  in vitro phosphorylation, 10 uM peptide (% of best substrate): 14
[21]
  in vitro phosphorylation (% of best substrate): 18
[22]
  in vitro phosphorylation (% of best substrate): 3
[23]
  in vitro phosphorylation, 1 uM peptide (% of best substrate): 46
  in vitro phosphorylation, 10 uM peptide (% of best substrate): 52
[24]
  in vitro phosphorylation (% of best substrate): 2
[25]
  in vitro phosphorylation (% of best substrate): 13
[26]
  in vitro phosphorylation (% of best substrate): 2
[27]
  in vitro phosphorylation, 1 uM peptide (% of best substrate): 44
  in vitro phosphorylation, 10 uM peptide (% of best substrate): 16
[28]
  in vitro phosphorylation, 1 uM peptide (% of best substrate): 30
  in vitro phosphorylation, 10 uM peptide (% of best substrate): 23
[29]
  in vitro phosphorylation (% of best substrate): 17
[30]
  in vitro phosphorylation, 1 uM peptide (% of best substrate): 25
  in vitro phosphorylation, 10 uM peptide (% of best substrate): 19
[31]
  in vitro phosphorylation, 1 uM peptide (% of best substrate): 38
  in vitro phosphorylation, 10 uM peptide (% of best substrate): 29
[32]
  in vitro phosphorylation (% of best substrate): 4
[33]
  in vitro phosphorylation (% of best substrate): 3
[34]
  in vitro phosphorylation (% of best substrate): 4
[35]
  in vitro phosphorylation, 1 uM peptide (% of best substrate): 31
  in vitro phosphorylation, 10 uM peptide (% of best substrate): 24
[36]
  in vitro phosphorylation (% of best substrate): 4
[37]
  in vitro phosphorylation, 1 uM peptide (% of best substrate): 27
  in vitro phosphorylation, 10 uM peptide (% of best substrate): 13
[38]
  in vitro phosphorylation (% of best substrate): 38
